Reference: the supplement of paper PMC10567573

B1: TCEB3B (parent)
chain: STTALGDKQRKANESKGTRESWDS

Variants of: B1
Experiment: protein stability index of a GFP-peptide fusion (GPS, HEK-293T) (PSI 1-6); higher = more stable
Conditions: c terminus: a fixed tail appended
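Also: lentivirally expressed fusions sorted by FACS into six bins by GFP to DsRed ratio, PSI derived from sequencing read proportions per bin multiplied by bin number.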

Protein stability index: each site, then its substitutions
K16: M 3.44 | L 4.3 | R 4.04 | G 4.52
G6: Q 3.83 | K 3.3 | P 4.34 | H 3.78 | M 3.93 | W 3.29 | V 2.98 | Y 3.68 | N 4.38 | F 3.12 | S 3.85 | R 4.07 | E 4.31 | C 3.74 | D 4.12 | I 3.59 | L 4.08 | T 3.81 | A 3.65
R10: N 4.14 | Q 4.56 | A 4.13 | K 4.25 | G 4.55 | S 4.26 | P 4.43 | M 4.03 | W 3.46 | V 3.54 | D 4.76 | H 4.24 | C 3.53 | I 3.6 | L 4.28 | E 4.57 | Y 4.26 | T 4.33 | F 4.15
T18: Y 3.8 | M 3.51 | G 3.81 | N 4.09 | I 3.31 | A 4.15 | Q 4.03 | C 4.19 | P 3.22 | F 3.46 | L 3.14 | E 4.17 | D 4.05 | R 3.76 | W 3 | S 4 | H 3.79 | V 4.55 | K 3.61
E20: S 4.88 | M 4.54 | C 3.66 | T 4.86 | H 4.89 | N 4.68 | D 4.76 | K 5.19 | I 4 | A 4.82 | L 4.6 | W 4.5 | F 4.6 | V 4.32 | Y 4.92 | P 4.89 | G 5 | Q 4.38 | R 4.2
A12: D 4.36 | P 4.17 | Y 3.4 | S 4.3 | V 3.88 | F 3.76 | M 3.83 | E 4.49 | C 3.99 | H 3.88 | T 3.59 | Q 3.92 | W 3.34 | K 3.13 | N 4.2 | R 3.56 | G 4.21 | L 4.03 | I 3.63
T3: Q 4.35 | W 3.57 | S 3.57 | V 4.36 | Y 3.77 | R 3.89
G17: F 3.97 | N 3.74 | Q 3.88 | P 4.42 | L 3.21 | K 3.65 | I 2.92 | E 4.78 | M 3.43 | S 3.71 | T 3.98 | H 3.93 | Y 3.93 | C 3.8 | W 3.51 | R 3.97 | V 3.55 | D 4.55 | A 3.78
R19: H 4.4 | T 4.89 | L 4.5 | A 4.95 | C 4.67 | S 4.94 | D 5.16 | M 4.8 | N 4.58 | E 5.27 | Y 3.37 | P 4.84 | G 4.68 | K 4.21 | F 3.86 | V 5.14 | W 4.17 | I 4.58 | Q 4.49
S21: E 4.99 | C 4.57 | F 4.18 | A 5.05 | D 5.1
K8: P 3.96 | F 3.88 | I 3.98 | V 4.17 | W 4.51 | D 4.59 | C 4.12 | R 4.08 | M 4.12 | Q 4.16 | L 4.8 | H 3.86 | S 4.31 | E 4.1 | A 3.83 | N 4.15 | Y 3.11 | T 3.46 | G 4.29
